The pIC50 is the negative decadic logarithm of the IC50, by convention in mol/L.

pIC50: −log10 of the molar value.

Among the data in patent publication US20130309177A1 are IC50 values, retold here.

Assay [1] concerns the target somatostatin receptors on AR42J cells (rat). In words: apparent IC50; competition with ^111In-DTPA-octreotide on AR42J cells, 3 h at RT.
The target of assay [2] is gastrin-releasing peptide receptor on PC-3 cells (UniProt P30550). Description: competition with ^125I-BBN on PC-3 cells, repeat experiment (250 to 2 nM competitor).
gastrin-releasing peptide receptor on PC-3 cells, sequence (P30550 whole entry): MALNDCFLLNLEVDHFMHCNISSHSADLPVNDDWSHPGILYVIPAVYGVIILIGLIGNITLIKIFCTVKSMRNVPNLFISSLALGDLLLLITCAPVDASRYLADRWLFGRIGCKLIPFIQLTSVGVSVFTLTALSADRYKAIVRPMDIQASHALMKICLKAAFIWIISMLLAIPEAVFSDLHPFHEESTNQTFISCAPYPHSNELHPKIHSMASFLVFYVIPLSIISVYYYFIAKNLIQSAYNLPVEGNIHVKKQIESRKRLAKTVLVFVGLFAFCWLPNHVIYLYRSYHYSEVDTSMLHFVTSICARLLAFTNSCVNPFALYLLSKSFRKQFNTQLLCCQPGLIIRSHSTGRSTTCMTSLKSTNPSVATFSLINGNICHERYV

somatostatin receptors on AR42J cells (rat), sequence (P30680 whole entry): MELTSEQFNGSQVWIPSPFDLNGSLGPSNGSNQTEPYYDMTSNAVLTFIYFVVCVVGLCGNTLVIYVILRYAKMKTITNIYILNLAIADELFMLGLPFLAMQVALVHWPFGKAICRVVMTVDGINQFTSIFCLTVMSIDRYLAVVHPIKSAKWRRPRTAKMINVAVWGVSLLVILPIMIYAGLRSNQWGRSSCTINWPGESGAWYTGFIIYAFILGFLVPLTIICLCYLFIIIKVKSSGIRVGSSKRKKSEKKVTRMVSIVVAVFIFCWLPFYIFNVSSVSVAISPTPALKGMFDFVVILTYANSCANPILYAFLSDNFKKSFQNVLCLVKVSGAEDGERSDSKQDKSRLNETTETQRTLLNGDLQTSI

In the case of “^19F-IMP466 (Al^19F complex of IMP 466, NOTA-D-Phe-Cys-Phe-D-Trp-Lys-Thr-Cys-Throl) (peptide)”, the negative logarithm of the IC50 (pIC50) in assay [1] is 8.44.

In assay [2], commercially available BBN peptide gave a pIC50 of 7.61.

For ^115In-DTPA-octreotide (peptide), the negative-log IC50 (pIC50) in assay [1] was 8.20.

Regarding “^69Ga-IMP466 (gallium complex of IMP 466) (peptide)”, the negative-log IC50 (pIC50) in assay [1] is 7.89.
